Experiment [1] addresses T1, recombinant monomeric mouse ENTPD2 extracellular domain (residues 29-462) with His6 tag (mouse, UniProt O55026 29-462).
T1 sequence: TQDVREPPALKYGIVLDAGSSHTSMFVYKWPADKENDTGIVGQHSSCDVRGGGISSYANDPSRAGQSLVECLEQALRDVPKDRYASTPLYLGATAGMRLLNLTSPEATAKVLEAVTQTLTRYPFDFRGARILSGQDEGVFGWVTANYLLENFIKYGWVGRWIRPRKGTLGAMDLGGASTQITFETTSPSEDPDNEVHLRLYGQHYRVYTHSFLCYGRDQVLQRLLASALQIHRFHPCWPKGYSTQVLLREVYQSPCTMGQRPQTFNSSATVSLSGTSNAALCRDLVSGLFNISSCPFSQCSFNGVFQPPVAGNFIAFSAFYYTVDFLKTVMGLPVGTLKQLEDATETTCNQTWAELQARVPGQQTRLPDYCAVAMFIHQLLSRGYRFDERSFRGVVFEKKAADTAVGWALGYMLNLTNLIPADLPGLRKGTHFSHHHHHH
The experiment is described as follows: SPR Biacore.

For experiment [2], the target named is T2, Human ENTPD1 (NP_001767) expressed on NIH/3T3 cells (human, UniProt P49961 1-510).
T2 construct: also called NIH/3T3-ENTPD1; CD39
T2 sequence: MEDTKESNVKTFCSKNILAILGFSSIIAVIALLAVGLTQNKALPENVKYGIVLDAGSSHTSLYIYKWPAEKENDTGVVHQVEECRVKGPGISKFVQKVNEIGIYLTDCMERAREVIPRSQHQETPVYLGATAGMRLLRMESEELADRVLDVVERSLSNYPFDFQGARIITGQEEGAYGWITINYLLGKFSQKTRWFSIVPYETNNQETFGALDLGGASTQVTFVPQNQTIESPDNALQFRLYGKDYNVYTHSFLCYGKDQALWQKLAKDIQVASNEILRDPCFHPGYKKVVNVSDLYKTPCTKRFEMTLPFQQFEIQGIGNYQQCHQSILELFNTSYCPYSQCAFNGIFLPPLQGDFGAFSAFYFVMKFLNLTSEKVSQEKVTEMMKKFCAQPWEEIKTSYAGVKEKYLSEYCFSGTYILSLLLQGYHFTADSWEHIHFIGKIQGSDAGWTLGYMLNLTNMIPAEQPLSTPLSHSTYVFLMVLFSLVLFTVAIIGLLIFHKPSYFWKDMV
The experiment is described as follows: flow cytometry, NIH/3T3-ENTPD1 cells. For orientation: Flow cytometry measures light scatter and fluorescence of single cells or particles in a stream.

Experiment [3] has as its target T3, recombinant human ENTPD2 extracellular domain (residues 29-462) with C-terminal Avi-His6 tag (human, UniProt Q9Y5L3 29-462, biotinylated on the AviTag in the epitope binning assay).
T3 construct: also called human ENTPD2 ECD; Human ENTPD2-Avi-His6 protein
The experiment is described as follows: SPR Biacore, mAb captured, ECD analyte, 25C. The protocol:
(§1) Biacore Screening: Affinity was measured by determining the kinetic rate constants using surface plasmon resonance (SPR) on a Biacore T200 or T100 with the T200 sensitivity upgrade instrument (Biacore, GE Healthcare). Antibodies were captured on CM5 sensor chips (Biacore, GE Healthcare) prepared with a mouse anti-human IgG Fc antibody (ThermoFisher catalogue #05-4200) amine coupled to the surface. […] ENTPD2 analytes were allowed to associate for 180 s and dissociate for up to 1800 s depending on the off-rate of the antibody at a flow rate of 30 μL/min. The running buffer was PBS pH 7.2 (prepared from a Corning 10X stock, cat#46-013-CM)+0.05% Tween 20. […] The raw data were analyzed using Biacore T200 Evaluation Software version 1.0 and fit to a 1:1 binding model, with all parameters set to fit globally except for RI, which was set to fit locally.
Background: Surface plasmon resonance follows binding to a sensor surface in real time, without labels.

Experiment [4] has as its target T4, recombinant cyno ENTPD2 extracellular domain (residues 29-462) with C-terminal Avi-His6 tag (cynomolgus macaque, UniProt Q9Y5L3 29-462 (human entry)).
T4 construct: also called cynomologus (cyno) ENTPD2 ECD
T4 chain (part 1 of 2): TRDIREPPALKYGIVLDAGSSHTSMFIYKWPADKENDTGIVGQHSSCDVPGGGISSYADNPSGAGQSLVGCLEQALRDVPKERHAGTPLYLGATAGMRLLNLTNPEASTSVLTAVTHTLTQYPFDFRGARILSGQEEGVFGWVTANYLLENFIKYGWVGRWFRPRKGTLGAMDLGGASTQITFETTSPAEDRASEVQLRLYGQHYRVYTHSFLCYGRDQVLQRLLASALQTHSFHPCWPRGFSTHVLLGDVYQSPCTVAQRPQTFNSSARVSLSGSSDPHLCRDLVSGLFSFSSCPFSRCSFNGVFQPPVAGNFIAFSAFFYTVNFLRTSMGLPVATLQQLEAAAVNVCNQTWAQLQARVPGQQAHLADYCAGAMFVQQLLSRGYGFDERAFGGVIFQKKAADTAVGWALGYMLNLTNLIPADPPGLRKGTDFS
T4 chain (part 2 of 2): HHHHHH
The experiment is described as follows: SPR Biacore, mAb captured, ECD analyte, 25C. The protocol: as §1

The values that follow come from patent US20220348651A1 (Novartis, published 2022).

Residue numbers refer to the chain shown, from its start.

B1: ANTI-HUMAN ENTPD2 MAB9 (antibody, human IgG1, lambda, V domains shown)
VH: QVQLVQSGAEVKKPGSSVKVSCKASGGTFDSYAVSWVRQAPGQGLEWMGRIVPWLGHTQYAQKFQGRVTITADESTSTAYMELSSLRSEDTAVYYCARESPGYRYSFDVWDQGTLVTVSS
VL: SYELTQPLSVSVALGQTARITCSGDAIGEKYVYWYQQKPGQAPVLVIYDDNNRPSGIPERFSGSNSGNTATLTISRAQAGDEADYYCASYDLQQARWVFGGGTKLTVLG
notes: also called Anti-ENTPD2 mAb9
Usually Kd stands for the concentration at which binding is half-saturated. For orientation: koff means the first-order rate constant of dissociation. The term kon denotes a measure of how fast the partners come together. Consider B1, for which the dissociation constant Kd in experiment [1] turned out to be 750 nM. In addition, the binding result in experiment [2] was “no binding (tested: 50 nM)”. Moreover, in experiment [3], the Kd is 0.9 nM, the koff was 0.0003 s⁻¹ and the kon was determined as 380000 M⁻¹ s⁻¹. Also, in experiment [4], the dissociation constant Kd was found to be 20.9 nM, the koff was 0.021 s⁻¹ and the on-rate constant (kon) stood at 990000 M⁻¹ s⁻¹.

B2: ANTI-HUMAN ENTPD2 MAB10 (antibody, human IgG1, lambda, V domains shown)
VH: B1 VH with H57F, Q59R
VL: B1 VL
notes: also called Anti-ENTPD2 mAb10
B2: the binding result in experiment [1] was “binds”; in experiment [2], “no binding (tested: 50 nM)”. For the same molecule, the dissociation constant Kd in experiment [3] came out at 0.8 nM; in experiment [4] it was 15.2 nM. Also, the koff in experiment [3] was 0.00024 s⁻¹; in experiment [4], 0.018 s⁻¹. The values for the association rate constant (kon) in experiment [3] and in experiment [4] were 340000 M⁻¹ s⁻¹ and 1.2e+06 M⁻¹ s⁻¹, respectively.

B3: ANTI-HUMAN ENTPD2 MAB2 (antibody, human IgG1, kappa)
heavy: not shown
light: EIVLTQSPATLSASPGERITLSCSASSSVSYIHWYQQKPGQAPRLLIYSTSNLASGIPARFSGSGSGTFYTLTISSVEPEDAAVYYCHQWSSYPWTFGGGTKLEIKRTVAAPSVFIFPPSDEQLKSGTASVVCLLNNFYPREAKVQWKVDNALQSGNSQESVTEQDSKDSTYSLSSTLTLSKADYEKHKVYACEVTHQGLSSPVTKSFNRGEC
notes: humanized from mAb17; human IgG1, kappa; also called Anti-ENTPD2 mAb2
With B3, the binding result in experiment [1] is “no binding”; in experiment [2], “no binding (tested: 50 nM)”. Besides, the Kd in experiment [3] turned out to be 1.7 nM; in experiment [4], 2.8 nM. Besides, the off-rate constant (koff) in experiment [3] stood at 0.00018 s⁻¹; in experiment [4], 0.0012 s⁻¹. Besides, the kon in experiment [3] came to 110000 M⁻¹ s⁻¹; in experiment [4], 430000 M⁻¹ s⁻¹.

B4: ANTI-HUMAN ENTPD2 MAB7 (antibody, human IgG1, kappa)
heavy: not shown
light: B3 light with R18E
notes: humanized from mAb17; human IgG1, kappa; also called Anti-ENTPD2 mAb7
Regarding B4, the binding result in experiment [1] was “no binding”. Moreover, the binding result in experiment [2] was “no binding (tested: 50 nM)”. Also, in experiment [3], the Kd worked out at 0.9 nM, the koff is 0.00019 s⁻¹ and the kon came out at 210000 M⁻¹ s⁻¹. Also, in experiment [4], the equilibrium dissociation constant (Kd) was 1.1 nM, the off-rate (koff) turned out to be 0.0012 s⁻¹ and the kon was 1.2e+06 M⁻¹ s⁻¹.

B5: ANTI-HUMAN ENTPD2 MAB3 (antibody, human IgG1, kappa, V domains shown)
VH: QVQLVQSGAEVVKPGASVKISCKASGYTFTDYNMDWVKQAPGQRLEWIGDINPKYDISTYNQQFKGKATITVDTSASTAYMELSSLRSEDTAVYYCARRGFFLYYGINYYYFDVWGQGTLVTVSS
VL: EIVLTQSPATLSASPGERITLSCSASSSVSYIHWYQQKPGQAPRLLIYSTSNLASGIPARFSGSGSGTFYTLTISSVEPEDAAVYYCHQWSSYPWTFGGGTKLEIKR
notes: humanized from mAb17; human IgG1, kappa; also called Anti-ENTPD2 mAb3
Take B5: the figures for the binding result in experiment [1] and in experiment [2] were “no binding” and “no binding (tested: 50 nM)”, respectively. Moreover, the dissociation constant (Kd) amounted to 1.3 nM in experiment [3] and 2.2 nM in experiment [4]. In addition, the koff in experiment [3] was determined as 0.00016 s⁻¹; in experiment [4] it was 0.00098 s⁻¹. For the same molecule, the values for the on-rate constant (kon) in experiment [3] and in experiment [4] were 130000 M⁻¹ s⁻¹ and 450000 M⁻¹ s⁻¹, respectively.

B6: ANTI-HUMAN ENTPD2 MAB8 (antibody, human IgG1, lambda, V domains shown)
VH: QVQLQQSGPGLVKPSQTLSLTCAISGDSVSSSSAAWNWIRQSPSRGLEWLGRIYYRSKWYNDYAVSVKSRITINPDTSKNQFSLQLNSVTPEDTAVYYCARGSYVTSSYEGFDYWGQGTLVTVSS
VL: SYELTQPLSVSVALGQTARITCSGDNLPEKYAYWYQQKPGQAPVLVIYDDNKRPSGIPERFSGSNSGNTATLTISRAQAGDEADYYCQSYGKWGWTWVFGGGTKLTVLG
notes: also called Anti-ENTPD2 mAb8
On to B6, for which the binding result in experiment [1] is listed as “binds”. Also, in experiment [3], the dissociation constant Kd is 3.3 nM, the koff was found to be 0.00094 s⁻¹ and the on-rate constant (kon) amounted to 290000 M⁻¹ s⁻¹. In experiment [4], the dissociation constant Kd came out at 81.1 nM, the koff stood at 0.024 s⁻¹ and the kon came out at 300000 M⁻¹ s⁻¹.

B7: ANTI-HUMAN ENTPD2 MAB4 (antibody, human IgG1, kappa, V domains shown)
VH: QIQLQESGPGLVKPSQTLSLTCTVSGYSITSGYYWNWIRQHPGKGLEWIGYISYDADNNYNPSLKNRVTISRDTSKNQFSLKLSSVTAADTAVYYCAGGYYRYGLGSYRGSYYYVMDYWGQGTTVTVSS
VL: ETVLTQSPATLSVSPGERATISCKASQSVDYEGHSYMNWYQQKPGQAPRLLIYAASNLESGIPARFSGSGSGTDFTLTISSVEPEDAATYYCQQSNEDPPTFGGGTKLEIKR
notes: humanized and optimized from mAb16; human IgG1, kappa; also called Anti-ENTPD2 mAb4
Turning to B7, the binding result in experiment [1] is recorded as “no binding”. Also, in experiment [2], the binding result is reported as “no binding (tested: 50 nM)”. In experiment [3], the dissociation constant Kd is 0.7 nM, the dissociation rate constant (koff) amounted to 0.00022 s⁻¹ and the on-rate (kon) was 300000 M⁻¹ s⁻¹. In experiment [4], the Kd is 42.1 nM, the koff was 0.0057 s⁻¹ and the on-rate constant (kon) was 140000 M⁻¹ s⁻¹.

B8: ANTI-HUMAN ENTPD2 MAB6 (antibody, human IgG1, kappa, V domains shown)
VH: B7 VH with I2V, I49M, V68I, R109S
VL: DTQMTQSPSSLSVSVGDRATITCKASQSVDYEGHSYMNWYQQKPGKAPKLLIYAASNLESGVPSRFSGSGSGTDFTLTISSVQPEDFATYYCQQSNEDPPTFGGGTKLEIKR
notes: humanized and optimized from mAb16; human IgG1, kappa; also called Anti-ENTPD2 mAb6
As to B8, the binding result in experiment [1] is on record as “no binding”. In addition, the binding result in experiment [2] is on record as “no binding (tested: 50 nM)”. Also, in experiment [3], the dissociation constant Kd is 0.7 nM, the koff came out at 0.00026 s⁻¹ and the kon is 350000 M⁻¹ s⁻¹. Besides, in experiment [4], the dissociation constant Kd was 35.6 nM, the koff turned out to be 0.01 s⁻¹ and the on-rate (kon) came to 290000 M⁻¹ s⁻¹.

B9: ANTI-HUMAN ENTPD2 MAB5 (antibody, human IgG1, kappa, V domains shown)
VH: B7 VH
VL: B7 VL with E32D, H34N
notes: humanized and optimized from mAb16; human IgG1, kappa; also called Anti-ENTPD2 mAb5
Regarding B9, the binding result in experiment [1] was “no binding”; in experiment [2] it was “no binding (tested: 50 nM)”. Further, the values for the equilibrium dissociation constant (Kd) in experiment [3] and in experiment [4] were 0.6 nM and 10.7 nM, respectively. In addition, the values for the koff in experiment [3] and in experiment [4] were 0.00016 s⁻¹ and 0.003 s⁻¹, respectively. For the same molecule, the on-rate constant (kon) turned out to be 270000 M⁻¹ s⁻¹ in experiment [3] and 290000 M⁻¹ s⁻¹ in experiment [4].
